A protein production outcome set (Wang et al. 2014)

Experiment: label from the status in PepcDB records

**Q.** For “MRTICVFNNKGGVGKTTLLCNLAAYFSIKRGKKVLVVDADPQCNATAYMIKEKVLDKLYASSSSDSATINSLIASLKKSKGYGIPPVLRSDGFNVDIVPGDPKFSLAEDFLAKDWLDAIAGDERGLRTTFFFRNLISWARSDGYDLVFFDMGPSLGAINRTVLLSSDHFILPMSSDIFSLRGLQNIEVALKNWTKGIERGLVSFKEDQGTSFKVESGDALSELGVSFLGYVTQQYTAKTVDGKKQPVSAYEKIIKKIDPLVSKHLILPLNKGQKLNYKLGEIPYFQSLVPMAQTATVPIFALKKADGVVGAHFDKVRQFDSVISGIVDKIEANMNSKGN”, which protein production is on record?
**A.** failed

**Q.** For “MKVTVTTLELKDKITIASKALAKKSVKPILAGFLFEVKDGNFYICATDLETGVKATVNAAEISGEARFVVPGDVIQKMVKVLPDEITELSLEGDALVISSGSTVFRITTMPADEFPEITPAESGITFEVDTSLLEEMVEKVIFAAAKDEFMRNLNGVFWELHKNLLRLVASDGFRLALAEEQIENEEEASFLLSLKSMKEVQNVLDNTTEPTITVRYDGRRVSLSTNDVETVMRVVDAEFPDYKRVIPETFKTKVVVSRKELRESLKRVMVIASKGSESVKFEIEENVMRLVSKSPDYGEVVDEVEVQKEGEDLVIAFNPKFIEDVLKHIETEEIEMNFVDSTSPCQINPLDISGYLYIVMPIRLA”, which protein production is on record?
**A.** not failed

**Q.** With “MLASLEARYPGLAFAWPRPGVLEITFRGEKLXAMPPALHRGLARVWRDLEAVEGVRAVLLRGEGGVFSAGGSFGLIEEMRASHEALLRVFWEARDLVLGPLXFPRPVVAAVEKVAVGAGLALALAADIAVVGKGTRLLDGHLRLGVAAGDHAVLLWPLLVGMAKAKYHLLLXEPLTGEEAERLGLVALAVEDEKVYEKALEVAERLAQGPKEALHHTKHALXHWYRSFLPHFELSLALEFLGFSGKELEEGLKALKEKRPPEFP” as the sequence, how does the protein production read?
**A.** not failed

**Q.** Which protein production does the source give for “MYADYEYYEKEYLLGKEPVIAERNYLYYEKQARAEVDKITFNRCRGLDEIPEEVKDCVCDVAEYLCKYDRYSGSDAPGPLASFGNDGETGTYDLSNSIYTESKRKEKIQETLYKHLADTGLLYSGR” here?
**A.** failed

**Q.** With “IKHWVFDMDGTLTIAVHDFAAIREALSIPAEDDILTHLAALPADESAAKHAWLLEHERDLAQGSRPAPGAVELVRELAGRGYRLGILTRNARELAHVTLEAIGLADCFAEADVLGRDEAPPKPHPGGLLKLAEAWDVSPSRMVMVGDYRFDLDCGRAAGTRTVLVNLPDNPWPELTDWHARDCAQLRDLLSA” as the sequence, how does the protein production read?
**A.** failed

**Q.** For “MAAAALREQLNALLSSMFASGLVDEQFQQLQMLQEDGGTPGFVAEVVTLFCDDADRIISELAALLDQPIVDFDKVDAYVHQLKGSSASVGAQKVKFTCMQFRQLCQDKNRDGCIMALAVVRNEFYDLRNKFQTMLQLEQQIQAQQ”, which protein production is on record?
**A.** not failed

**Q.** For “ASRPHQWQTDEEGVRTGKCSFPVKYLGHVEVDESRGMHICEDAVKRLKATGKKAVKAVLWVSADGLRVVDEKTKDLIVDQTIEKVSFCAPDRNFDRAFSYICRDGTTRRWICHCFMAVKDTGERLSHAVGCAFAACLERKQKR”, which protein production is on record?
**A.** not failed

**Q.** Which protein production does the source give for “MPRRSALLGQPLFRLLAINLAIGVTIAALLLGGLLYLNPGHLRDLIFADDSPGTALGLLLFGFVVTFGSAAMGSAIMAMGSDLRGGGKGGRKLALPIEMIPGAKAIPVRAEHGARAVRRHGSL” here?
**A.** failed

**Q.** With “MAGENFATPFHGHVGRGAFSDVYEPAEDTFLLLDALEAAAAELAGVEICLEVGSGSGVVSAFLASMIGPQALYMCTDINPEAAACTLETARCNKVHIQPVITDLVKGLLPRLTEKVDLLVFNPPYVVTPPQEVGSHGIEAAWAGGKNGREVMDRFFPLVPDLLSPKGLFYLVTIKENNPEEILKIMKTKGLQGTTALSRQAGQETLSVLKFTKS” as the sequence, how does the protein production read?
**A.** failed

**Q.** Which protein production does the source give for “MIPGMNAKQMKKMERQMKKMGMDMKDLKGVKEVIIRLEDKELVIPNAEVSLMNVMGQETYQVTGKAHEVAIDEELVIPDEDIEMVANQANVSEDEAKAALEDTNGDLAEAILKLNQ” here?
**A.** failed

**Q.** With “MVNQQEEINLSVALVTRNRPDSLERCLKSLRDQKVQPFEVVVSDDSDDLYKSSTKEIAQKWGCRYIDGPKRGLYANRNYVALACYGTHIRTMDDDHEFPEQHIEVCLNAIQSDPSSIWIIGEYSPTSSIENAPHPCPGQLHPRGFSFYPKDTQNCWAIADGASIYPKKIFASGLRFVEYYKFGASYLEWGSRLYYLSYRIRHLDSTYIIHHFNPKARSFSDQEMDQSSRFFAMLCHSFLYQSTFKNKCLFSYEILKQFILDPKLTIKCIINSWSNFELFSRSFCALEHHHHHH” as the sequence, how does the protein production read?
**A.** failed

**Q.** For “MSLAAARGGVGAGPDVRPVHGVHARMAEKMTLSHKEIPTAKASVEVICAELLRLRDRFVSAAPEITPFALTLRLLVIALKHNVILNSTWVDSGEGPQVHVHRGVHLGFGAATERGLLVPVVTDAQDKNTRELASRVAELITGAREGTLTPAELRGSTFTVSNFGALGVDDGVPVINHPEAAILGLGAIKPRPVVVGGEVVARPTMTLTCVFDHRVVDGAQVAQFMCELRDLIESPETALLDLEGHHHHHH”, which protein production is on record?
**A.** not failed

**Q.** With “MNKLDGIPIPKTYGPLGNLPLLDKNRVSQSLWKIADEMGPIFQFKFADAIGVFVSSHELVKEVSEESRFDKNMGKGLLKVREFSGDGLFTSWTEEPNWRKAHNILLPSFSQKAMKGYHPMMQDIAVQLIQKWSRLNQDESIDVPDDMTRLTLDTIGLCGFNYRFNSFYREGQHPFIESMVRGLSEAMRQTKRFPLQDKLMIQTKRRFNSDVESMFSLVDRIIADRKQAESESGNDLLSLMLHAKDPETGEKLDDENIRYQIITFLIAGHETTSGLLSFAIYLLLKHPDKLKKAYEEADRVLTDPVPSYKQVQQLKYIRMILNESIRLWPTAPAFSLYAKEETVIGGKYLIPKGQSVTVLIPKLHRDQSVWGEDAEAFRPERFEQMDSIPAHAYKPFGNGQRACIGMQFALHEATLVLGMILQYFDLEDHANYQLKIKESLTLKPDGFTIRVRPRKKEAMTAMPGAQPEENGRQEERPSAPAAENTHGTPLLVLYGSNLGTAEEIAKELAEEAREQGFHSRTAELDQYAGAIPAEGAVIIVTASYNGNPPDCAKEFVNWLEHDQTDDLRGVKYAVFGCGNRSWASTYQRIPRLIDSVLEKKGAQRLHKLGEGDAGDDFEGQFESWKYDLWPLLRTEFSLAEPEPNQTETDRQALSVEFVNAPAASPLAKAYQVFTAKISANRELQCEKSGRSTRHIEISLPEGAAYQEGDHLGVLPQNSEVLIGRVFQRFGLNGNEQILISGRNQASHLPLERPVHVKDLFQHCVELQEPATRAQIRELAAHTVCPPHQRELEDLLKDDVYKDQVLNKRLTMLDLLEQYPACELPFARFLALLPPLKPRYYSISSSPQLNPRQTSITVSVVSGPALSGRGHYKGVASNYLAGLEPGDAISCFIREPQSGFRLPEDPETPVIMVGPGTGIAPYRGFLQARRIQRDAGVKLGEAHLYFGCRRPNEDFLYRDELEQAEKDGIVHLHTAFSRLEGRPKTYVQDLLREDAALLIHLLNEGGRLYVCGDGSRMAPAVEQALCEAYRIVQGASREESQSWLSALLEEGRYAKDVWDGGVSQHNVKADCIART” as the sequence, how does the protein production read?
**A.** failed

**Q.** For “MIGHRISRLGSTIVKQLAREGYLATYGTKNLHRSYGHYLQSLPVVPRQARTSQEAWFLKSHKFCTSSTTSSENGDEETEKITIIFVDKDGEEIPVKVPIGMSVLEAAHENDIDLEGACEASLACSTCHVIVMDTEYYNKLEEPTDEENDMLDLAFGLTETSRLGCQVIARPELDGVRLAIPSATRNFAVDGFVPKPH”, which protein production is on record?
**A.** failed

**Q.** For “MKALRAFAIVAASLLLATGAAAQVSLSPPSGPNPFPKPLEPEKPKPRPPAPAKAPATEAKDKAKKPGDKPDAKAAPEGGAATAEDPNVDLVYGAYQRGFYKTAFELAQKRAADNDAKAMTMLGELYANALGVKRDYKKAAEWYSRAADLGDREAMFALAMARMGGRGGPPNREEAAKWLAQAAKLGEPKAAYNLALLYLDGQTFPQDVKRAAELLRMAADAGNPEAQYALATFYKEGTGVTKSIEQSVRLLQAAALAGNVPAQVEYAIALYNGTGTPKNEPAAVALLRKAARANNPIAQNRLAHVLVSGQGAPRDINEAMKWHLIAKTAGKGDLQLDQTLAQMSAEDRAKAEEAARTWIGGGK”, which protein production is on record?
**A.** failed

**Q.** Which protein production does the source give for “MAKSEEIIRERYKVMAPRIIKALNQRNFEAYFCETSEKAVECALSLIPQGASVAWGGSMTLEEIGLIQRLKEGNYQVIDRDTAKSQEERFSLMRQALLSDVYLASVNAMSEDGIMVNIDGRGNRISAIAFGPKTVILVVGMNKICRDLESARKRAHTYAAPNNALRLGLELPCTKTGCCFDCNKNNPSSICAQIVEMHSSIVPGRIKVILVGENLGL” here?
**A.** failed
